# Measured values as given in the RNAGym collection of RNA variant scans (doi:10.7554/elife.90254).
# B1: LINE1-full (parent)
# chain: UACGUAGGUGGUUUUCCCCUGAUAGUGCUAAGGGGGCCUGGAAGUUUGGACUGGGCAGAGCUCAACACAGCGUGGCAAAGUGGCUGUGGCUAGACUGCCUCUCUGGAUUCCUCGUCACUCAGCAGGGCAUCUCUGAGAGAAAUGCC
# Variants of: B1
# Test: self-cleavage, relative activity (ratio to wild type); higher = more cleavage; in vitro, sequencing; the parent is a self-cleaving ribozyme
row,Variant,self-cleavage
1,A77G G125A,2.43
2,C68U U143C,0.22
3,A67C U109C,0.06
4,U81C A124U,0.74
5,G44C A141G,1.03
6,U9G,0.93
7,U47C U104A,1.23
8,U9A U23C,0.93
9,U108C A140U,1.66
10,C66U A77G,0.07
11,U9A U15C,1.08
12,U29C U87A,0.16
13,A69U G126A,0.05
14,A43G C95U,0.16
15,G36C U52A,0.45
16,C103U U119C,1.7
17,A31U A79G,0.55
18,A24G G54A,0.67
19,A121G U134A,1.32
20,U87C U112A,0.16
21,C3U A50U,0.58
22,U102C G106A,1.19
23,G88U A138G,0.06
24,U23C U100C,1.79

row,Variant,self-cleavage
1,U14G A50U,1.14
2,G88A C120U,0.09
3,G8A U112C,1.03
4,U81A U91A,0.93
5,A67U U87A,0.57
6,A92G U130C,0.11
7,A22U,1.11
8,A22C,1.51
9,C63A U73A,0.06
10,C28U A59G,0.09
11,G34A,1.16
12,G41A G125A,1.46
13,A43G C71U,0.15
14,U9A A79G,1.01
15,C99U A129G,0.89
16,A50G A79U,1.09
17,G34C A107G,1.12
18,C18U U96A,0.08
19,U109A U112A,1.35
20,G41C U134C,1.76
21,A2U A57G,0.6
22,A92G A107U,0.09
23,A22G A138G,1.25
24,A124U U130A,1.7

row,Variant,self-cleavage
1,G72A U130C,1.85
2,U5C U108C,1.57
3,A2U C16U,0.32
4,U12G G32C,1.04
5,A79G U134C,1.25
6,U45G U108C,1.91
7,C51A A67G,0.63
8,C3U U119C,1.14
9,U13C A31C,0.97
10,U13C A31G,0.84
11,U46C C113U,1.53
12,U20A A92U,0.92
13,U62A C103A,0.04
14,C56U C76U,0.34
15,U45A U87A,0.09
16,A129U U134G,1.53
17,A121U A129G,1.77
18,U12G U109A,1.47
19,U39C G40A,0.73
20,U15A A140U,0.61
21,U87A A140U,0.11
22,A31G A57G,0.95
23,G21A U104A,1.27
24,A6C U96A,0.17

row,Variant,self-cleavage
1,U14C U130C,1.5
2,G11A A77G,1.08
3,U85C A136G,0.2
4,C118U A121G,1.58
5,A22G C76U,1.39
6,U29C G32A,1.08
7,U39A G89A,0.06
8,U9C G127U,1.45
9,U47A G86A,0.07
10,A92G G122A,0.13
11,G34U A43U,0.97
12,U12A U85C,0.2
13,A79G G88U,0.05
14,G41C U46A,0.25
15,U26C A138C,1.28
16,U20C G70U,0.05
17,A6U A65G,0.26
18,U5G U132C,1.04
19,U5C U45A,0.74
20,G32U U130A,1.7
21,U46C G53A,1.54
22,U9C C118U,0.92
23,U112G A136G,2.3
24,C90A A117C,0.05

row,Variant,self-cleavage
1,G55A U115C,0.63
2,A43C,1.35
3,A2G A124U,0.88
4,U62A U143G,0.08
5,U14C A43U,1.15
6,U132C A142G,1.49
7,U45C U130G,1.9
8,U20C A64U,0.65
9,U15C A65C,0.09
10,U112C A121U,1.09
11,G34C U47A,0.64
12,A64G U73A,0.19
13,G35U A78U,2.1
14,U15A A92G,0.25
15,A79G U108C,1.61
16,C16U A138G,2.06
17,C128U U132C,1.37
18,U26A A69G,0.29
19,A22G A142G,1.23
20,U9A U104A,1.29
21,U14C A138G,1.23
22,A42U U47C,1.7
23,U85C U87A,0.07
24,A30G A69G,0.55

row,Variant,self-cleavage
1,A2U U96C,0.31
2,A67U A136C,0.03
3,G48A U52A,1.22
4,U13C U132G,1.02
5,A79G G83U,0.2
6,A31G A69G,0.78
7,A94U A121G,0.52
8,U20C A129G,2.29
9,A65G G122U,0.07
10,A57U A79U,0.1
11,G8C,1.66
12,U9C G25U,0.96
13,U12A A30U,1.63
14,U112C U134G,1.34
15,U108C A129U,1.89
16,A42U A140U,1.05
17,G36A A57G,1.52
18,U15A A138U,1.07
19,G4U U52A,1.01
20,U62A A136U,0.14
21,C56U A129U,0.23
22,G114A A142U,1.56
23,U45C C116U,1.36
24,A6C U115A,0.8

row,Variant,self-cleavage
1,U5C A138C,0
2,A6G G33A,0.49
3,G21A C28U,1.22
4,U9G U85C,0.38
5,U20C U91C,0.76
6,U20C U91A,0.55
7,C90U U112C,0.03
8,U96A C110G,0.09
9,A6U U23A,0.26
10,G34U U73G,0.99
11,A69G U85A,0.09
12,U9C G53A,1.2
13,C37G U47C,0.71
14,A121C A138G,2.34
15,U102A U132C,1.69
16,A124G C146A,0.84
17,A6G G48A,0.22
18,G25U A65G,0.01
19,U9C A59G,0.11
20,U1A U91A,1.27
21,U20A A121U,1.55
22,A79G G105A,1.29
23,G58A A59G,0
24,U29A A136G,1.38

row,Variant,self-cleavage
1,U29A A136U,1.38
2,C38U U115A,1.46
3,C56G A77G,0.04
4,U14C G49U,1.21
5,A59G G144A,0.12
6,A50G G125A,0.39
7,U85C U96C,0.2
8,C118A A129G,1.1
9,C17U A121G,1.53
10,A50G G114A,0.98
11,A64C U108C,0.39
12,G21A U109C,0.95
13,U134A U143A,0.77
14,A31G G36C,1.67
15,U102A A142G,1.9
16,A22C A140G,1.65
17,U46A G54A,0.37
18,U14C G88U,0.06
19,A2G U46A,0.3
20,G35C U47C,1.84
21,U1C U112C,2.17
22,U26C G35U,1.56
23,G83A U96C,0.11
24,U85A U104C,0.13

row,Variant,self-cleavage
1,A50U U102C,1.17
2,A43C A79G,0.75
3,U47A A121U,1.04
4,U39A A124G,0.97
5,U12C U20G,0.78
6,U26A C90U,0.04
7,U62C A64C,0
8,U26C U45C,1.07
9,A79G,1.25
10,A50U U100A,0.31
11,C3U U85A,0.28
12,C76U U143A,2.12
13,U14C A142C,1.87
14,A67G C103U,0.25
15,G41C U132A,1.35
16,G93A U132C,0.03
17,A2G A64G,0.39
18,G58U A129G,0.05
19,C3A U73A,0.64
20,A42U A50G,0.92
21,U87A G114A,0.05
22,U73C G83A,1.63
23,U52A U100A,1.29
24,G127U A138G,1.29

row,Variant,self-cleavage
1,C19G G126A,0.49
2,C110U A121U,1.43
3,G83A U109A,0.96
4,G21U U62A,0.02
5,U119G,1.63
6,A30U U73A,2.55
7,G48U U132C,1.12
8,A59G C71A,0.06
9,A65G G75A,0.03
10,U26C G72U,1.02
11,U15A U29A,0.38
12,A59U A138G,0.83
13,A57U U91C,0.04
14,U100A A117G,0.61
15,U12C G49A,1.28
16,U9C C131U,1.6
17,A50G C63A,0.02
18,U100A A124U,0.88
19,A6G A67G,0.39
20,U85A U96C,0.09
21,A77U U143G,1.48
22,U1A U47C,1.02
23,G41U U115A,1.29
24,G35A U62C,0.03

row,Variant,self-cleavage
1,A6G U73C,1.34
2,A31G G105A,1.29
3,U39C A124U,1.26
4,A24G A124G,1.06
5,C68A C133A,0.02
6,U13G U108G,1.2
7,U13G U108C,1.31
8,G48A A57G,0.6
9,G32C A78G,0.73
10,G10A A142G,1.42
11,A67U U96C,0.07
12,G75A G126A,0.87
13,U1C A77G,1.32
14,A22G U39C,1.14
15,A24G A79G,0.95
16,A24G A79U,1.59
17,G8A A30G,0.67
18,U108G U119C,2.59
19,G89C A124G,0.08
20,A22G G72A,1.94
21,G21A A77G,2.18
22,U5C G32A,1.06
23,G40A U119C,0.84
24,U29A A43G,1.77

row,Variant,self-cleavage
1,U23C U46A,0.92
2,U12G A129U,1.49
3,A24G A107U,1.05
4,C37A C95A,0.01
5,U47A C113U,1.17
6,A50C,1.34
7,U91C A92G,0.1
8,G70C U102A,0.07
9,G34A A77G,1.88
10,A78G U130C,1.29
11,G7A U73A,1.31
12,U15A A107U,1.06
13,U26C A64U,0.61
14,U23A U85C,0.28
15,A78U U87C,0.84
16,G36A U85A,0.04
17,A2G A142U,1.12
18,C99A U143C,1.03
19,U73G C84U,0.17
20,G93C C120U,0.03
21,A92U U104A,0.44
22,A65U U96A,0
23,U115A A117G,1.61
24,U62A U134A,0.07

row,Variant,self-cleavage
1,G54U U115A,0.74
2,A59U A140G,0.89
3,A64U U112C,0.44
4,U46C A140G,1.41
5,U12C G36C,0.95
6,A50U C63U,0.2
7,G72U U143C,1.02
8,U100C U119A,2.09
9,G4C A78G,0.81
10,U13C C19U,1.01
11,G34U U52A,1.22
12,C28U A142G,0.79
13,A42U U132C,1.01
14,C16A A67G,1.02
15,U13C A142G,1.3
16,A22G A42U,1.31
17,A22U A141G,1.29
18,A6U U52A,1
19,C18A U115C,1.85
20,A57G U102C,0.43
21,A50G A64G,0.42
22,U47C A117G,1.81
23,A94C A107G,0.13
24,A121G A124U,1.62

row,Variant,self-cleavage
1,U1A U102A,0.48
2,G40A A64C,0.18
3,G75U,0.62
4,U87C U119A,0.19
5,U47A G88U,0.03
6,U119A A142C,1.95
7,C51A A140G,1.04
8,G11A C120U,1.35
9,C38U G60A,0.05
10,A2G A6U,0.53
11,A50G A78C,0
12,A31U C145A,1.65
13,U39C U73A,1
14,A94U U108C,0.46
15,A69U C71U,0.02
16,U45C G49A,0.77
17,A2G G72U,0.53
18,U13C A124C,1.67
19,A129U U130C,1.49
20,U62C A94C,0.07
21,A79U U109G,1.1
22,U39C G72A,1.07
